Measurements published in patent US20250361268A1, “NOVEL ANTI-INFLAMMATORY PEPTIDE AND USE THEREOF” (NOVACELL TECHNOLOGY INC., priority 2022, published 2025).

T1: formyl peptide receptor 2 (FPR2) (UniProt P25090 1-351, limits assumed)
T1 sequence (looked up): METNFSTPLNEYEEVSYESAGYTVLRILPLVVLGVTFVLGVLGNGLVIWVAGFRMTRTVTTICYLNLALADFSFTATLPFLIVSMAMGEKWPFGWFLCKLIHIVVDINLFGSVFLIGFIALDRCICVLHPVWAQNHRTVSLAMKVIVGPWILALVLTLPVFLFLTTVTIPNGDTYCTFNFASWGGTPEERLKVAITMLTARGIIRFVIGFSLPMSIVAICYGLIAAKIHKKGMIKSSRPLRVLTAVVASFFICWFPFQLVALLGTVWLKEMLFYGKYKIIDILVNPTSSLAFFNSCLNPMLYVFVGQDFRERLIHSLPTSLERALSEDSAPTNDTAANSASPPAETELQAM

B1: peptide of SEQ ID NO 112 (peptide)
peptide: MRYWPM
HELM: PEPTIDE1{[CCCC(=O)[*:2]].M.R.Y.W.P.[dM].[am]}$$$$V2.0
SMILES: CCCC(=O)N[C@@H](CCSC)C(=O)N[C@@H](CCCNC(=N)N)C(=O)N[C@@H](Cc1ccc(O)cc1)C(=O)N[C@@H](Cc1c[nH]c2ccccc12)C(=O)N1CCC[C@H]1C(=O)N[C@H](CCSC)C(N)=O
B2: peptide of SEQ ID NO 101 (peptide)
peptide: RWRYWVM
HELM: PEPTIDE1{R.W.R.Y.W.V.[dM].[am]}$$$$V2.0; N-terminus assumed
SMILES: CSCC[C@@H](NC(=O)[C@@H](NC(=O)[C@H](Cc1c[nH]c2ccccc12)NC(=O)[C@H](Cc1ccc(O)cc1)NC(=O)[C@H](CCCNC(=N)N)NC(=O)[C@H](Cc1c[nH]c2ccccc12)NC(=O)[C@@H](N)CCCNC(=N)N)C(C)C)C(N)=O
B3: peptide of SEQ ID NO 76 (peptide)
peptide: WRYKPM
HELM: PEPTIDE1{[ac].W.R.Y.K.P.[dM].[am]}$$$$V2.0
SMILES: CSCC[C@@H](NC(=O)[C@@H]1CCCN1C(=O)[C@H](CCCCN)NC(=O)[C@H](Cc1ccc(O)cc1)NC(=O)[C@H](CCCNC(=N)N)NC(=O)[C@H](Cc1c[nH]c2ccccc12)NC(C)=O)C(N)=O
B4: peptide of SEQ ID NO 114 (peptide)
peptide: MKYWPM
HELM: PEPTIDE1{[ac].M.K.Y.W.P.[dM].[am]}$$$$V2.0
SMILES: CSCC[C@H](NC(C)=O)C(=O)N[C@@H](CCCCN)C(=O)N[C@@H](Cc1ccc(O)cc1)C(=O)N[C@@H](Cc1c[nH]c2ccccc12)C(=O)N1CCC[C@H]1C(=O)N[C@H](CCSC)C(N)=O
B5: peptide of SEQ ID NO 98 (peptide)
peptide: RMRYYVM
HELM: PEPTIDE1{[ac].R.M.R.Y.Y.V.[dM].[am]}$$$$V2.0
SMILES: CSCC[C@H](NC(=O)[C@H](CCCNC(=N)N)NC(C)=O)C(=O)N[C@@H](CCCNC(=N)N)C(=O)N[C@@H](Cc1ccc(O)cc1)C(=O)N[C@@H](Cc1ccc(O)cc1)C(=O)N[C@H](C(=O)N[C@H](CCSC)C(N)=O)C(C)C
B6: peptide of SEQ ID NO 113 (peptide)
peptide: MKYWPM
HELM: PEPTIDE1{M.K.Y.W.P.[dM].[am]}$$$$V2.0; N-terminus assumed
SMILES: CSCC[C@H](N)C(=O)N[C@@H](CCCCN)C(=O)N[C@@H](Cc1ccc(O)cc1)C(=O)N[C@@H](Cc1c[nH]c2ccccc12)C(=O)N1CCC[C@H]1C(=O)N[C@H](CCSC)C(N)=O
B7: peptide of SEQ ID NO 94 (peptide)
peptide: RWRYYVM
HELM: PEPTIDE1{R.W.R.Y.Y.V.[dM].[am]}$$$$V2.0; N-terminus assumed
SMILES: CSCC[C@@H](NC(=O)[C@@H](NC(=O)[C@H](Cc1ccc(O)cc1)NC(=O)[C@H](Cc1ccc(O)cc1)NC(=O)[C@H](CCCNC(=N)N)NC(=O)[C@H](Cc1c[nH]c2ccccc12)NC(=O)[C@@H](N)CCCNC(=N)N)C(C)C)C(N)=O
B8: peptide of SEQ ID NO 105 (peptide)
peptide: MRYWVM
HELM: PEPTIDE1{[ac].M.R.Y.W.V.[dM].[am]}$$$$V2.0
SMILES: CSCC[C@H](NC(C)=O)C(=O)N[C@@H](CCCNC(=N)N)C(=O)N[C@@H](Cc1ccc(O)cc1)C(=O)N[C@@H](Cc1c[nH]c2ccccc12)C(=O)N[C@H](C(=O)N[C@H](CCSC)C(N)=O)C(C)C
B9: peptide of SEQ ID NO 100 (peptide)
peptide: MRYYVM
HELM: PEPTIDE1{M.R.Y.Y.V.[dM].[am]}$$$$V2.0; N-terminus assumed
SMILES: CSCC[C@H](N)C(=O)N[C@@H](CCCNC(=N)N)C(=O)N[C@@H](Cc1ccc(O)cc1)C(=O)N[C@@H](Cc1ccc(O)cc1)C(=O)N[C@H](C(=O)N[C@H](CCSC)C(N)=O)C(C)C
B10: peptide of SEQ ID NO 109 (peptide)
peptide: RMRYWPM
HELM: PEPTIDE1{[CCCCCCCC(=O)[*:2]].R.M.R.Y.W.P.[dM].[am]}$$$$V2.0
SMILES: CCCCCCCC(=O)N[C@@H](CCCNC(=N)N)C(=O)N[C@@H](CCSC)C(=O)N[C@@H](CCCNC(=N)N)C(=O)N[C@@H](Cc1ccc(O)cc1)C(=O)N[C@@H](Cc1c[nH]c2ccccc12)C(=O)N1CCC[C@H]1C(=O)N[C@H](CCSC)C(N)=O
B11: peptide of SEQ ID NO 96 (peptide)
peptide: KWKYYVM
HELM: PEPTIDE1{K.W.K.Y.Y.V.[dM].[am]}$$$$V2.0; N-terminus assumed
SMILES: CSCC[C@@H](NC(=O)[C@@H](NC(=O)[C@H](Cc1ccc(O)cc1)NC(=O)[C@H](Cc1ccc(O)cc1)NC(=O)[C@H](CCCCN)NC(=O)[C@H](Cc1c[nH]c2ccccc12)NC(=O)[C@@H](N)CCCCN)C(C)C)C(N)=O
B12: peptide of SEQ ID NO 102 (peptide)
peptide: WRYWVM
HELM: PEPTIDE1{[ac].W.R.Y.W.V.[dM].[am]}$$$$V2.0
SMILES: CSCC[C@@H](NC(=O)[C@@H](NC(=O)[C@H](Cc1c[nH]c2ccccc12)NC(=O)[C@H](Cc1ccc(O)cc1)NC(=O)[C@H](CCCNC(=N)N)NC(=O)[C@H](Cc1c[nH]c2ccccc12)NC(C)=O)C(C)C)C(N)=O
B13: peptide of SEQ ID NO 104 (peptide)
peptide: RMRYWVM
HELM: PEPTIDE1{[ac].R.M.R.Y.W.V.[dM].[am]}$$$$V2.0
SMILES: CSCC[C@H](NC(=O)[C@H](CCCNC(=N)N)NC(C)=O)C(=O)N[C@@H](CCCNC(=N)N)C(=O)N[C@@H](Cc1ccc(O)cc1)C(=O)N[C@@H](Cc1c[nH]c2ccccc12)C(=O)N[C@H](C(=O)N[C@H](CCSC)C(N)=O)C(C)C
B14: peptide of SEQ ID NO 93 (peptide)
peptide: HMRYWYM
HELM: PEPTIDE1{[CCCC(=O)[*:2]].H.M.R.Y.W.Y.[dM].[am]}$$$$V2.0
SMILES: CCCC(=O)N[C@@H](Cc1c[nH]cn1)C(=O)N[C@@H](CCSC)C(=O)N[C@@H](CCCNC(=N)N)C(=O)N[C@@H](Cc1ccc(O)cc1)C(=O)N[C@@H](Cc1c[nH]c2ccccc12)C(=O)N[C@@H](Cc1ccc(O)cc1)C(=O)N[C@H](CCSC)C(N)=O
B15: peptide of SEQ ID NO 107 (peptide)
peptide: RMRYWPM
HELM: PEPTIDE1{[ac].R.M.R.Y.W.P.[dM].[am]}$$$$V2.0
SMILES: CSCC[C@H](NC(=O)[C@H](CCCNC(=N)N)NC(C)=O)C(=O)N[C@@H](CCCNC(=N)N)C(=O)N[C@@H](Cc1ccc(O)cc1)C(=O)N[C@@H](Cc1c[nH]c2ccccc12)C(=O)N1CCC[C@H]1C(=O)N[C@H](CCSC)C(N)=O
B16: peptide of SEQ ID NO 106 (peptide)
peptide: RMRYWPM
HELM: PEPTIDE1{R.M.R.Y.W.P.[dM].[am]}$$$$V2.0; N-terminus assumed
SMILES: CSCC[C@H](NC(=O)[C@@H](N)CCCNC(=N)N)C(=O)N[C@@H](CCCNC(=N)N)C(=O)N[C@@H](Cc1ccc(O)cc1)C(=O)N[C@@H](Cc1c[nH]c2ccccc12)C(=O)N1CCC[C@H]1C(=O)N[C@H](CCSC)C(N)=O
B17: peptide of SEQ ID NO 75 (peptide)
peptide: RWRYKPM
HELM: PEPTIDE1{[CCCC(=O)[*:2]].R.W.R.Y.K.P.[dM].[am]}$$$$V2.0
SMILES: CCCC(=O)N[C@@H](CCCNC(=N)N)C(=O)N[C@@H](Cc1c[nH]c2ccccc12)C(=O)N[C@@H](CCCNC(=N)N)C(=O)N[C@@H](Cc1ccc(O)cc1)C(=O)N[C@@H](CCCCN)C(=O)N1CCC[C@H]1C(=O)N[C@H](CCSC)C(N)=O
B18: peptide of SEQ ID NO 110 (peptide)
peptide: MRYWPM
HELM: PEPTIDE1{M.R.Y.W.P.[dM].[am]}$$$$V2.0; N-terminus assumed
SMILES: CSCC[C@H](N)C(=O)N[C@@H](CCCNC(=N)N)C(=O)N[C@@H](Cc1ccc(O)cc1)C(=O)N[C@@H](Cc1c[nH]c2ccccc12)C(=O)N1CCC[C@H]1C(=O)N[C@H](CCSC)C(N)=O
B19: peptide of SEQ ID NO 111 (peptide)
peptide: MRYWPM
HELM: PEPTIDE1{[ac].M.R.Y.W.P.[dM].[am]}$$$$V2.0
SMILES: CSCC[C@H](NC(C)=O)C(=O)N[C@@H](CCCNC(=N)N)C(=O)N[C@@H](Cc1ccc(O)cc1)C(=O)N[C@@H](Cc1c[nH]c2ccccc12)C(=O)N1CCC[C@H]1C(=O)N[C@H](CCSC)C(N)=O
B20: peptide of SEQ ID NO 108 (peptide)
peptide: RMRYWPM
HELM: PEPTIDE1{[CCCC(=O)[*:2]].R.M.R.Y.W.P.[dM].[am]}$$$$V2.0
SMILES: CCCC(=O)N[C@@H](CCCNC(=N)N)C(=O)N[C@@H](CCSC)C(=O)N[C@@H](CCCNC(=N)N)C(=O)N[C@@H](Cc1ccc(O)cc1)C(=O)N[C@@H](Cc1c[nH]c2ccccc12)C(=O)N1CCC[C@H]1C(=O)N[C@H](CCSC)C(N)=O
B21: peptide of SEQ ID NO 97 (peptide)
peptide: RMRYYVM
HELM: PEPTIDE1{R.M.R.Y.Y.V.[dM].[am]}$$$$V2.0; N-terminus assumed
SMILES: CSCC[C@H](NC(=O)[C@@H](N)CCCNC(=N)N)C(=O)N[C@@H](CCCNC(=N)N)C(=O)N[C@@H](Cc1ccc(O)cc1)C(=O)N[C@@H](Cc1ccc(O)cc1)C(=O)N[C@H](C(=O)N[C@H](CCSC)C(N)=O)C(C)C

target: T1, formyl peptide receptor 2 (FPR2); assay: cell-based or functional assay

EC50 for [Ca2+] | Binder
< 10 nM | B1
< 10 nM | B2
< 10 nM | B3
< 10 nM | B4
< 10 nM | B5
< 10 nM | B6
< 10 nM | B7
< 10 nM | B8
< 10 nM | B9
< 10 nM | B10
< 10 nM | B11
< 10 nM | B12
< 10 nM | B13
< 10 nM | B14
< 10 nM | B15
< 10 nM | B16
< 10 nM | B17
< 10 nM | B18
< 10 nM | B19
< 10 nM | B20
< 10 nM | B21
